For test [1], the target named is psd10_human PSMD10 (UniProt O75832).
Test [2] shares this target. This is another data set of the same source.

The text below walks through data of IntAct's records for PubMed 24338975.

psd10_human PSMD10, sequence (O75832 whole entry): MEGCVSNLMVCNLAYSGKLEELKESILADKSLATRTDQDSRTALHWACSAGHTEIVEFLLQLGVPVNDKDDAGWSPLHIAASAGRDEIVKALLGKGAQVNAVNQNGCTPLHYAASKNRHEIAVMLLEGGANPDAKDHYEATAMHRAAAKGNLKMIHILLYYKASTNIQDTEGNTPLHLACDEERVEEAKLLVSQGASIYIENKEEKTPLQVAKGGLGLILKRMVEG
Cytoplasmic protein NCK2 (Homo sapiens), O43639 E167A;E168A;D170A, sequence (O43639 whole entry E167A/E168A/D170A): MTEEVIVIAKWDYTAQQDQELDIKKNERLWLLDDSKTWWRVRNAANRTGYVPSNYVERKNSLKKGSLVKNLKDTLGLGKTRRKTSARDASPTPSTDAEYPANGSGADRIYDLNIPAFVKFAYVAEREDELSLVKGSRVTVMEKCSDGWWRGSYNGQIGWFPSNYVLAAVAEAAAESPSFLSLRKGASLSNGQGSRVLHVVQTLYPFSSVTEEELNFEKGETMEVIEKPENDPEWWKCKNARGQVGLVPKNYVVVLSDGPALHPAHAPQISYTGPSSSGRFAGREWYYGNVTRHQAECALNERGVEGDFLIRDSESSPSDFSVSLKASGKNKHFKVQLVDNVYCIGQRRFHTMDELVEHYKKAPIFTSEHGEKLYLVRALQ

Consider “Cytoplasmic protein NCK2 (Homo sapiens), O43639 E167A;E168A;D170A”, for which the “effect of a mutation on the interaction” value with psd10_human PSMD10 [1] is recorded as “disrupting interaction strength”.
With “Chloride intracellular channel protein 1 (Homo sapiens) (from UniProt O00299) E150A;E151A;D153A”, in the test with psd10_human PSMD10 [2], the “effect of a mutation on the interaction” value was “disrupting interaction strength”.
Take “Chloride intracellular channel protein 1 (Homo sapiens) (from UniProt O00299) V152E”: the “effect of a mutation on the interaction” value with psd10_human PSMD10 [2] was “with no effect”.
